Test: soluble on expression in E. coli; label from the status in PepcDB or PDB records

| Sequence | soluble on expression in E. coli |
| --- | --- |
| MPAAPLCSPFPSPPPSFHTASLPFSIHAHHSPLPCDLDPPLYLAETVSLLEEWGPPSSCPMQCKLTSHPARLTHLPPCLWGFAVALKPSWAGLAPSLLPPPRMSLCRPLSFLRHQCPWLPWQAHQGLVPWSPSMVAAACIVSPSGHCRCQPFIPHVFLGHGGLTSVSGECG | soluble |
| MPAIKSSADLRNNYNEISTFCHNYPEPVFITKNGKGDLAVMSIEAYEGLTSRFELYSQIKEGMDDIATGNTRPFSEAMADIRSRRSRLEHHHHHH | not soluble |
| MPASSTSSPSSKEEDEKHTSADEDVTPTASPSLVKSEVVKEEENDDADRTLTMPSTSQDIQPESSPAHGRSAPSSQEITSPPTVRRVATPLEAAEQEYYYFTTDMINQAALDIEREKEKFDSLITWYKLQRDDVPALGTSSVGNSTAPSYVSEKGSTTPMSSQPSSHQSGTSSTNGAHGGLNGFSCSPFGLENNPRSNDPMQCMSSPVELDEICPTLEDFMSSAASSSTPSTSSAPQMNQNQNTHPNSINHHHQPDTSLLMLNNHHSSPLNQLSFNHQMPSTSNSNPPSNASLKRRATEEFGNDGPMKQAKIEGSENDNNPMRKLEMMANSSNFRGGNTINEVVEASKKDERTLKMEKLDVIGKSVGEEFAQQAREAQMRQMQQAAAAAGSMPPSYPSPGQYPGPMHYPGMPPMMPPGAPFSAGASYPPMGGPFPPNPYGMHPGMTPGGYPMSAPGKMPFGSPSFPQSAPSPAAMAAMQQGRMPGPPMPPHMMTPQQQQHFMQMQQAQMAHFNAQKAAAAAAAAGMSPAARASPMGASPSPHHPHPSQFPPNHPANPMYHHHIMMMRAMHAQGGQPGHPGMMPPGMMPPGMMPPGMMPPGMHPGMAGMPPMHPGMQGMPPMHPGMQGMPGMPHGPPQPPQNPALMVAGNRAGSAEAAAAQMGNPHHPMMGANMWQLTPHYPPPLPASSSSGAGTPVSR | not soluble |
| MPDDEKIKLRYSPEESARLIKEEARRLGFSACGFAEAQALPPSVVGTYEKFLSEGRHGEMDYLERNRELRYSPAELLPGTRTVISVALNYYPKIKQPASAPQIAYYAYGKDYHKVVKRLLDKLLDYIRREVCPSVSGRSFSDSAPIAERYWACRAGIGWVGRSGMLILPRGGTFFFLGELLVDIDLPPDAPMPSRCGACRNCIESCPTGAISEEGMDSRLCVSYLTIEHEGEIPPELVGKLGNRFYGCDSCQLCCPWNRYAHPSEVEAFVPREALFTFDRDDLVSLDEEKYLHFFAGSPMKRAGLDGLRRNARALEQGDKKEDEQPTDEDG | not soluble |
| MPDVPETVGTPDGSTEFEHRPTTDQSFENALAKARNGTRLTVDDAVELFTTGTDRDGIDHDRKEQVLEAADRRRAEVVGDEVTFVANLNNNVTTACNTGCLFCNFKDRSEQFRSDYQEDHGGFTKTPSESRQIVQDALDRGIYEVCSVSGLHPALALDTEHREILETSDRGDLNYRSPDEYETDPATYCEQLDAMNVGDIHLHSMTPEEAYHARRGTDWSYEEVFSRLQDAGLDSVPGTAAEILVDEVRDVICPGKIRTDEWLEAMAAAASVGLDMTSTMMYGHVENEYHRALHLQRIRDLQDRTGAITEFVPLSFVHEETPLYERGMVDGGATVDEDELMIAVSRLFLDNVDHIQASWVKYGDTQGLKMLTCGADDFMGTILSEEITKRAGGDYGEFRSFQEYADMITAIGRTPVERSTDYEQRRVIDPDADVLGPQLGPRADGTPLLD | not soluble |
| MPEFRVWAPKPALVRLDVNGAVHAMTRSADGWWHTTVAAPADARYGYLLDDDPTVLPDPRSARQPDGVHARSQRWEPPGQFGAARTDTGWPGRSVEGAVIYELHIGTFTTAGTFDAAIEKLDYLVDLGIDFVELMPVNSFAGTRGWGYDGVLWYSVHEPYGGPDGLVRFIDACHARRLGVLIDAVFNHLGPSGNYLPRFGPYLSSASNPWGDGINIAGADSDEVRHYIIDCALRWMRDFHADGLRLDAVHALVDTTAVHVLEELANATRWLSGQLGRPLSLIAETDRNDPRLITRPSHGGYGITAQWNDDIHHAIHTAVSGERQGYYADFGSLATLAYTLRNGYFHAGTYSSFRRRRHGRALDTSAIPATRLLAYTCTHDQVGNRALGDRPSQYLTGGQLAIKAALTLGSPYTAMLFMGEEWGASSPFQFFCSHPEPELAHSTVAGRKEEFAEHGWAADDIPDPQDPQTFQRCKLNWAEAGSGEHARLHRFYRDLIALRHNEADLADPWLDHLMVDYDEQQRWVVMRRGQLMIACNLGAEPTCVPVSGELVLAWESPIIGDNSTELAAYSLAILRAAEPA | not soluble |
| MPEIIGKLLKSDGKVVSEIEKQVSQALIDLETNDDVQSQLKELYIVGVKEVELGNKSAIIIYVPVPQLKAFHKIHPALVRELEKKFGGRDILILAKRRILPKPQRGSKARPQKQKRPRSRTLTAVHDAWLDELVYPAEVVGRRIRVKLDGKKVYKVHLDKSHQTNVGHKIGVFASVYRKLTGKDVTFEFPDPIF | not soluble |
| MPEILKVKPTRMELLKLKRRVKLAERGHKLLKEKQDALIMEFFTIYDEALSMRRELIKKIGEAFEALRLAQVEVGSVRLKEIAIGVNPNKEIEVRSRNIMGVRVPLIEVPELKRKPSERGYAFISTSSAVDVAAEKFEEVLELAIRLAEVEESLKRLGKEIEKTKRRVNALEYIIIPRMKNTIKFIEQHLDEMERENFFRLKRIKALLEARESMLEHHHHHH | not soluble |
| MPEISRDEVAHLAKLSRLALTDEELDRFAEQIDGIIGNVSAVQQVAAEGVEPMSHPHSIKTTMREDVVEQILTPEQALDQAPAVDQQRFVVPQILGEQD | not soluble |
| MPEPTKKEEPSKEKEAGTTPAKDWTLVETPPGEEQAKQNANSQLSILFIEKPQGGTVKVGEDITFIAKVKAEDLLRKPTIKWFKGKWMDLASKAGKHLQLKETFERHSRVYTFEMQIIKAKDNFAGNYRCEVTYKDKFDSCSFDLEVHESTGTTPNIDIRSAFKRSGEGQEDAGELDFSGLLKRREVKQQEEEPQVDVWELLKNAKPSEYEKIAFQYGITDLRGMLKRLKRMRREEKKSAAFAKILDPAYQVDKGGRVRFVVELADPKLEVKWYKNGQEIRPSTKYIFEHKGCQRILFINNCQMTDDSEYYVTAGDEKCSTELFVREPPIMVTKQLEDTTAYCGERVELECEVSEDDANVKWFKNGEEIIPGPKSRYRIRVEGKKHILIIEGATKADAAEYSVMTTGGQSSAKLSVDLKPLKILTPLTDQTVNLGKEICLKCEISENIPGKWTKNGLPVQESDRLKVVQKGRIHKLVIANALTEDEGDYVFAPDAYNVTLPAKVHVIDPPKIILDGLDADNTVTVIAGNKLRLEIPISGEPPPKAMWSRGDKAIMEGSGRIRTESYPDSSTLVIDIAERDDSGVYHINLKNEAGEAHASIKVKVVDFPDPPVAPTVTEVGDDWCIMNWEPPAYDGGSPILGYFIERKKKQSSRWMRLNFDLCKETTFEPKKMIEGVAYEVRIFAVNAIGISKPSMPSRPFVPLAVTSPPTLLTVDSVTDTTVTMRWRPPDHIGAAGLDGYVLEYCFEGTEDWIVANKDLIDKTKFTITGLPTDAKIFVRVKAVNAAGASEPKYYSQPILVKEIIEPPKIRIPRHLKQTYIRRVGEAVNLVIPFQGKPRPELTWKKDGAEIDKNQINIRNSETDTIIFIRKAERSHSGKYDLQVKVDKFVETASIDIQIIDRPGPPQIVKIEDVWGENVALTWTPPKDDGNAAITGYTIQKADKKSMEWFTVIEHYHRTSATITELVIGNEYYFRVFSENMCGLSEDATMTKESAVIARDGKIYKNPVYEDFDFSEAPMFTQPLVNTYAIAGYNATLNCSVRGNPKPKITWMKNKVAIVDDPRYRMFSNQGVCTLEIRKPSPYDGGTYCCKAVNDLGTVEIECKLEVKV | soluble |
| MPERDALLTDLVGDRAAEWDTSGELPRDLLVRLGADGLLCAEVAAEHGGLGLGSRENGEFTAHVGSLCSSLRSVMTSQGMAAWTVQRLGDAGQRATFLKELTSGKLAAVGFSERQAGSDLSAMRTRVRLDGDTAVVDGHKVWTTAAAYADHLVVFGLQEDGSGAVVVVPADTPGVRVERVPKPSGCRAAGHADLHLDQVRVPAGAVLAGSGASLPMLVAASLAYGRKSVAWGCVGILRACRTAAVAHARTREQFGRPLGDHQLVAGHIADLWTAEQIAARVCEYASDHWDEGSPEMVPATILAKHVAAERAAAGAATAAQVLASAGAREGHVVERAYRDAKLMEIIEGSSEMCRVMLAQHALALPA | soluble |
| MPEVKTEKPHLLDMGKPQLRMVDLNLLTVFDAVMQEQNITRAAHTLGMSQPAVSNAVARLKVMFNDELFVRYGRGIQPTARAFQLFGSVRQALQLVQNELPGSGFEPTSSERVFNLCVCSPLDNILTSQIYNRVEKIAPNIHVVFKASLNQNTEHQLRYQETEFVISYEEFRRPEFTSVPLFKDEMVLVASRKHPRISGPLLEGDVYNEQHAVVSLDRYASFSQPWYDTPDKQSSVAYQGMALISVLNVVSQTHLVAIAPRWLAEEFAESLDLQILPLPLKLNSRTCYLSWHEAAGRDKGHQWMEDLLVSVCKR | not soluble |
| MPFEKYTVPVSGRSDAAIEEELTRLRAELAAEYDLREVVHRFGESDFTFLSVLDSYALLDRIDPAAFVKDEQMPYWAEIWPAAVTLSRQIVETGELAGKSVLELGAGVGMASIAAARSGARVLCTDYSTEALRFVAYNAMKNRVPLDTARLDWRMVKGAEKFDAVIAADVLYERVNLLPIVTAIDALLAPGGAAYIADPRRRLADQFLELVHENGFEVAETRMFDAEGDQTVAVTIYKLQRLKALEHHHHHH | soluble |
| MPGERFSHSRCHAIAIKELQRRTENRDGTALHILPKSQRKLAIFLINMDSATKRLTDMNARLDAMGLKAERVAGVNGRELQYPIPEFSEISYMLMHGRRTSPPEIGCYLSHVACANKFMTGDADIALILEDDVVFEDDFLDAIDEAVLNGNDWDILRLTTVSNGRKFAFRALSNGRSLAVALTREKGSGAYLVNRRAGKWISKLIPMRLAYDIAFDLEYLSGLKAAFIYPLCATQDADGESQIQNNLRIYRLPRWRYFTVLPYRAYLETSRFLLRGLRFLVAKAKVAMERGKPKAVQAGRLEHHHHHH | soluble |
| MPGIIYEGKGTNMEYADVFDSLVGDLKDDVLSLQLTNFDDVNHSYKSDGKCSMSVKDFDGYAENMPVKNVEYNGQKYIFMRSISDDAQPSQVFISVDGDERGRKRGMLITSFCGILRMISTFDYQIANSVTAKIFKVLGEYSCEEEE | not soluble |
| MPGQKQKGKKNVRRTKTRFELIEPSKGQLIAEVEDTHGGYPPRFSCKTVDGDIIIAPIQGSIMKGPKRVLVKKDNLVLLVPIDFTTGKEGTTSYYIHHVYTSEDRHQLEKKGFLEKKDKISDATKSTKVVFGVESSDKSLEKAKDEELDIDTI | not soluble |
| MPHFTKRPAQPQAALAEAAGLRWLAEASSAVAQVVSADAEQITTVGVETQLPTPDAAFKAGEELARIHLAGAPAFGCPPAGWAGLNYIGTQGQACLSTPTWGVFYSQQRVLPFARRARRRNHLTEHALWVVEAACDLISELPDDVPPARIHGDLWFGNLLFGTDGPVFIDPAAHGGHPETDLAMLDVFGAPYLDEIREGYLSINPLPDGWRERTPMHQLHPLAVHAASHGPSYGVELLHAAKATLKLLDLEHHHHHH | not soluble |
| MPIGHSREVLVRLRDILALLADGCKTTSLIQQRLGLSHGRAKALIYVLEKEGRVTRVAFGNVALVCLSMDQYRQLVDGMIREVERLVTTNKLKFISPPRLHDLIIKDPQARKFFSSIIPIAHRTAIILSFLNHLLKMIYGEPYVKTDETVYLTANRKVHIEPPAK | soluble |
| MPILQELRLGKRISRDISLADLYQEWIELKILPSSRSEETKKKYLLRKNTIERLFGNKKVTQIRASEYQRIMNKYGQTVGRNFLGRLNTGIHQSIQMAIADKVLIDDFTQHVELFSSKEQQMTLEHHHHHH | not soluble |
